The target in the assay is T1, TAMRA-labeled α-synuclein peptide.
T1 chain: GYQDYEPEA
As to the kind of experiment: fluorescence polarization. Conditions: chain shown with the change;, read off a plot. (In general: Polarisation of emitted light reports the rotation of a fluorescent probe.)

Ka data for nine molecules are collected here from article PMC5591402.

B1: N2.17 VHH F100fS (protein)
chain: QGQLVESGGGSVQAGGSLRLSCAASGIDSSSYCMGWFRQRPGKEREGVARINGWGGVKTAYADSVKDRFTISRDNAENTVYLQMNSLKPEDTAIYYCAAKSSPGYCGGTWSNFGYWGQGTQVTVSS
On to B1, for which the Ka (parent: est. 8.6 x10^7 M^-1) is 9.6 x10^7 M^-1.

B2: N2.12 VHH G49A (protein)
chain: QGQLVESGGGSVQAGGSLRLSCAASGIDSSSYCMGWFRQRPGKEREGVARINGWRGIKTAYADSVKDRFTISRDNAENTVYLQMNSLKPEDTAIYYCAAKSSPGYCGGTWSNFGYWGQGTQVTVSS
For the molecule B2, the Ka (parent: est. 13 x10^7 M^-1) is 13 x10^7 M^-1.

B3: N2.12 VHH R53G (protein)
chain: QGQLVESGGGSVQAGGSLRLSCAASGIDSSSYCMGWFRQRPGKEREGVGRINGWGGIKTAYADSVKDRFTISRDNAENTVYLQMNSLKPEDTAIYYCAAKSSPGYCGGTWSNFGYWGQGTQVTVSS
With B3, under “parent: est. 13 x10^7 M^-1”, the Ka is 7.1 x10^7 M^-1.

B4: N2.17 VHH W52bL (protein)
chain: QGQLVESGGGSVQAGGSLRLSCAASGIDSSSYCMGWFRQRPGKEREGVARINGLGGVKTAYADSVKDRFTISRDNAENTVYLQMNSLKPEDTAIYYCAAKSSPGYCGGTWFNFGYWGQGTQVTVSS
Take B4: the Ka (parent: est. 8.6 x10^7 M^-1) was 3.3 x10^7 M^-1.

B5: N2.12 VHH T100dS (protein)
chain: QGQLVESGGGSVQAGGSLRLSCAASGIDSSSYCMGWFRQRPGKEREGVGRINGWRGIKTAYADSVKDRFTISRDNAENTVYLQMNSLKPEDTAIYYCAAKSSPGYCGGSWSNFGYWGQGTQVTVSS
In the case of B5, the Ka (parent: est. 13 x10^7 M^-1) is 8.5 x10^7 M^-1.

B6: N2.17 VHH S96F (protein)
chain: QGQLVESGGGSVQAGGSLRLSCAASGIDSSSYCMGWFRQRPGKEREGVARINGWGGVKTAYADSVKDRFTISRDNAENTVYLQMNSLKPEDTAIYYCAAKFSPGYCGGTWFNFGYWGQGTQVTVSS
Take B6: the Ka (parent: est. 8.6 x10^7 M^-1) is 1.6 x10^7 M^-1.

B7: N2.12 VHH S96F (protein)
chain: QGQLVESGGGSVQAGGSLRLSCAASGIDSSSYCMGWFRQRPGKEREGVGRINGWRGIKTAYADSVKDRFTISRDNAENTVYLQMNSLKPEDTAIYYCAAKFSPGYCGGTWSNFGYWGQGTQVTVSS
Consider B7, for which the Ka (parent: est. 13 x10^7 M^-1) was 6.7 x10^7 M^-1.

B8: N2.12 VHH W52bL (protein)
chain: QGQLVESGGGSVQAGGSLRLSCAASGIDSSSYCMGWFRQRPGKEREGVGRINGLRGIKTAYADSVKDRFTISRDNAENTVYLQMNSLKPEDTAIYYCAAKSSPGYCGGTWSNFGYWGQGTQVTVSS
For the molecule B8, the Ka (parent: est. 13 x10^7 M^-1) was 6.2 x10^7 M^-1.

B9: N2.17 VHH T100dS (protein)
chain: QGQLVESGGGSVQAGGSLRLSCAASGIDSSSYCMGWFRQRPGKEREGVARINGWGGVKTAYADSVKDRFTISRDNAENTVYLQMNSLKPEDTAIYYCAAKSSPGYCGGSWFNFGYWGQGTQVTVSS
For B9, the Ka (parent: est. 8.6 x10^7 M^-1) is 3.8 x10^7 M^-1.
